Experimental data taken from article PMC6141617 (Nature Communications, 2018).

Key:
14-3-3β (purified alone) = biological target: T1, 14-3-3β (purified alone) (human, UniProt P31946 1-239); assay: fluorescence polarisation; conditions: both partners purified
T1 construct: also called YWHAB (pTvHR21-SGC)
T1 sequence: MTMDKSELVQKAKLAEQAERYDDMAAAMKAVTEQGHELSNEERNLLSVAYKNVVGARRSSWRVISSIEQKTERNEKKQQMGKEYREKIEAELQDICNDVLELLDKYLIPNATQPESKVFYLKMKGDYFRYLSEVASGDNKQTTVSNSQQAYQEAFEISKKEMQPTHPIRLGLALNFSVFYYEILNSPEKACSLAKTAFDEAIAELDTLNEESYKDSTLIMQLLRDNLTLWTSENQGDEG

crystal structure = biological target: the molecule itself; assay: crystal structure

| Binder | Kd (14-3-3β (purified alone)) [nM] | stoichiometry N (crystal structure) |
| --- | --- | --- |
| GFP-ExoS^233-435 (domain or fragment) ADKALADGLVKRFGADAEKYLGRQPGGIHSDAEVMALGLYTGIHYADLNRALRQGQELDAGQKLIDQGMSAAFEKSGQAEQVVKTFRGTRGGDAFNAVEEGKVGHDDGYLSTSLNPGVARSFGQGTISTVFGRSGIDVSGISNYKNEKEILYNKETDMRVLLSASDEQGVTRRVLEEAALGEQSGHSQGLLDALDLASKPERS | ~70 |  |
| GFP-ExoS^233-453 (domain or fragment) ADKALADGLVKRFGADAEKYLGRQPGGIHSDAEVMALGLYTGIHYADLNRALRQGQELDAGQKLIDQGMSAAFEKSGQAEQVVKTFRGTRGGDAFNAVEEGKVGHDDGYLSTSLNPGVARSFGQGTISTVFGRSGIDVSGISNYKNEKEILYNKETDMRVLLSASDEQGVTRRVLEEAALGEQSGHSQGLLDALDLASKPERSGEVQEQDVRLRMRGLDLA | ~40 |  |
| 14-3-3β truncated after N234 (untagged, re-designed co-expression construct) (domain or fragment, human, UniProt P31946 1-234, looked up) MTMDKSELVQKAKLAEQAERYDDMAAAMKAVTEQGHELSNEERNLLSVAYKNVVGARRSSWRVISSIEQKTERNEKKQQMGKEYREKIEAELQDICNDVLELLDKYLIPNATQPESKVFYLKMKGDYFRYLSEVASGDNKQTTVSNSQQAYQEAFEISKKEMQPTHPIRLGLALNFSVFYYEILNSPEKACSLAKTAFDEAIAELDTLNEESYKDSTLIMQLLRDNLTLWTSEN |  | 2 |
| 14-3-3β^1–239 (untagged, first co-expression construct) (natural protein) MTMDKSELVQKAKLAEQAERYDDMAAAMKAVTEQGHELSNEERNLLSVAYKNVVGARRSSWRVISSIEQKTERNEKKQQMGKEYREKIEAELQDICNDVLELLDKYLIPNATQPESKVFYLKMKGDYFRYLSEVASGDNKQTTVSNSQQAYQEAFEISKKEMQPTHPIRLGLALNFSVFYYEILNSPEKACSLAKTAFDEAIAELDTLNEESYKDSTLIMQLLRDNLTLWTSENQGDEG |  | 2 |
